Test: TIM activity coupled assay, kinetic constants of WT GlTIM and C222 mutants with GAP
Type: biochemical, Giardia lamblia
Description: Glyceraldehyde 3-phosphate (GAP), buffers, salts and all the other analytical grade reagents were acquired from Sigma–Aldrich; α-glycerol-3-phosphate dehydrogenase (α-GDH) was from Roche, crystallization screen kits were obtained from Hampton Research. Restriction enzymes, DNA polymerase and T4 DNA ligase were purchased from New England BioLabs and Invitrogene. Oligonucleotide synthesis and DNA sequencing was performed at the Unidad de Biología Molecular, Instituto de Fisiología Celular, UNAM. Protein concentration was determined by the bicinchoninic acid method or by absorbance at 280 nm for pure GlTIM (ε280 = 26600 M^-1cm^-1). The TIM activity was determined at 25°C by a coupled assay, following the decrease in absorbance at 340 nm. The standard reaction mixture contained 100 mM triethanolamine/10 mM EDTA, pH 7.4 (TE buffer), 1 mM GAP, 0.2 mM NADH, and 0.9 units of α-GDH (20 μg/mL); the reaction was initiated by addition of 5 ng/mL of WT, C222V or C222M GlTIM, 10 ng/mL of C222N, 20 ng/mL of C222D or C222F, and 200 ng/mL of C222K. Kinetic, binding and stability data were analyzed by non-linear regression calculations with Origin software.
Determination of Km and Vmax was performed by fitting initial velocity data at GAP concentrations ranging from 0.3 to 3 mM to the Michaelis-Menten equation (v = Vmax•S/Km+S) by non-linear regression calculations. […]

B1: GlTIM: recombinant wild type triosephosphate isomerase of Giardia lamblia (protein, UniProt P36186 1-257, looked up)
Triosephosphate isomerase: MPARRPFIGGNFKCNGSLDFIKSHVAAIAAHKIPDSVDVVIAPSAVHLSTAIAANTSKQLRIAAQNVYLEGNGAWTGETSVEMLQDMGLKHVIVGHSERRRIMGETDEQSAKKAKRALEKGMTVIFCVGETLDERKANRTMEVNIAQLEALGKELGESKMLWKEVVIAYEPVWSIGTGVVATPEQAEEVHVGLRKWFAEKVCAEGAQHIRIIYGGSANGSNCEKLGQCPNIDGFLVGGASLKPEFMTMIDILTKTRT
- Vmax (GAP 0.3 to 3 mM, 25°C, pH 7.4): 8050 ± 444 µmol/min/mg
- kcat x 10^5 (calculated from Vmax, molecular mass 27.7 kDa): 4.4 x 10^5 min^-1

From paper PMC3718800, “Structural and Functional Perturbation of Giardia lamblia Triosephosphate Isomerase by Modification of a Non-Catalytic, Non-Conserved Region” (PLoS ONE, 2013)
